According to US20080241867:

Tested on: hybrid GFP construct containing the protease cleavage sequence SVPSGCG (SEQ ID NO:21) followed by histidine residues

| Substance | Micrograms of GFP Released by Protease (overnight, IMAC beads) | % GFP Released (60 minutes, 37° C.) | µg GFP Released by Protease (60 minutes, 37° C.) | also measured |
| --- | --- | --- | --- | --- |
| Elastase | 94 µg | – | – | release of GFP from beads, worded: The most effective enzyme was elastase, with positive results apparent within five minutes after adding the enzyme |
| Pepsin | – | – | – | Micrograms of GFP Released by Protease (overnight, IMAC beads, pH 8.0): 0 µg |
| Chymotrypsin | 47 µg | 11% | 10.6 µg | – |
| Trypsin | – | 4.6% | 4.07 µg | Micrograms of GFP Released by Protease (overnight, IMAC beads); Trypsin (Sample 1): 9 µg; Micrograms of GFP Released by Protease (overnight, IMAC beads); Trypsin (Sample 2): 56 µg |
| Crude Bromelain | 86 µg | – | – | – |
